Results reported in publication PMC11940065, “Conformational Analyses of the AHD1-UBAN Region of TNIP1 Highlight Key Amino Acids for Interaction with Ubiquitin” (Biomolecules, 2025).
Positions count from the first letter of the chain named. In names and notes the source's numbering stands. Values belong to the binder of their own block, whether it stands above or below them.

How the values were obtained:
[1] = target: T1, Methionine-1-linked triubiquitin (UniProt P0CG48 1-76; P0CG48 1-76; P0CG48 1-76); assay: MST; AHD1-UBAN labelled with RED-tris-NTA 2nd generation dye on its 6x-histidine tag; 16-step 2-fold serial dilution of M1-triUb from 40 µM to 610 pM; standard capillaries, Monolith X, MST power 40%, 23 °C; n = 2; details: both partners purified
T1 construct: ubiquitin, unit 1 of 3, joined head to tail (M1-linked) on one chain; ubiquitin, unit 2 of 3, joined head to tail (M1-linked) on one chain; ubiquitin, unit 3 of 3, joined head to tail (M1-linked) on one chain; also called M1-triUb; M1-linked triubiquitin; source: bacterial production, purified (IMAC, SEC)
T1 sequence (P0CG48 1-228, one chain of several): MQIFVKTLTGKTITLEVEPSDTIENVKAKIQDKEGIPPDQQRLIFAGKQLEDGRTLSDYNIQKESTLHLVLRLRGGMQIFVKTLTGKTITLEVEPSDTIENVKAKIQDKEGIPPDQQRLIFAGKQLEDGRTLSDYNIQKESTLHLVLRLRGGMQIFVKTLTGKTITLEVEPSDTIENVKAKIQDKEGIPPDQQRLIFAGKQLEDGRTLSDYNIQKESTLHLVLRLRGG

[2] = target: T1, Methionine-1-linked triubiquitin; assay: far-UV circular dichroism difference spectra; 1:1 molar mixture, each protein at 10 µM, 50 mM sodium phosphate pH 8.0, room temperature; compared with the mathematical average of the two separate spectra; details: both partners purified

- Kd [1]: 3.85 ± 0.89 µM
B1: WT AHD1-UBAN (TNIP1 417-509) (domain or fragment, human, UniProt Q15025 417-509, looked up)
chain: QRLNKALEEALSIQTPPSSPPTAFGSPEGAGALLRKQELVTQNELLKQQVKIFEEDFQRERSDRERMNEEKEELKKQVEKLQAQVTLSNAQLK
notes: TNIP1 (ABIN1), human, amino acids 417-509, the contiguous AHD1 and UBAN domains with their linker; In pET-28a(+); 15N-labelled for NMR; labelled with RED-tris-NTA dye on the His tag for MST; also called wildtype; ABIN1 AHD1-UBAN; source: E. coli Rosetta2 (DE3), purified (IMAC, SEC)

- Kd [1]: 8.38 ± 0.77 µM
B2: AHD1-UBAN P436W (domain or fragment, human, UniProt Q15025 417-509, looked up)
chain: B1 chain with P20W
notes: TNIP1 (ABIN1), human, amino acids 417-509 with P436W; source: E. coli Rosetta2 (DE3), purified (IMAC, SEC)

- binding result [2]: binds
B3: AHD1-UBAN E444F (domain or fragment, human, UniProt Q15025 417-509, looked up)
chain: B1 chain with E28F
notes: TNIP1 (ABIN1), human, amino acids 417-509 with E444F; source: E. coli Rosetta2 (DE3), purified (IMAC, SEC)

- binding result [2]: binds
B4: AHD1-UBAN E444Q (domain or fragment, human, UniProt Q15025 417-509, looked up)
chain: B1 chain with E28Q
notes: TNIP1 (ABIN1), human, amino acids 417-509 with E444Q; source: E. coli Rosetta2 (DE3), purified (IMAC, SEC)

- binding result [2]: binds
B5: AHD1-UBAN E425Q (domain or fragment, human, UniProt Q15025 417-509, looked up)
chain: B1 chain with E9Q
notes: TNIP1 (ABIN1), human, amino acids 417-509 with E425Q; source: E. coli Rosetta2 (DE3), purified (IMAC, SEC)

- Kd [1]: 7.41 ± 2.28 µM
B6: AHD1-UBAN E425W (domain or fragment, human, UniProt Q15025 417-509, looked up)
chain: B1 chain with E9W
notes: TNIP1 (ABIN1), human, amino acids 417-509 with E425W; source: E. coli Rosetta2 (DE3), purified (IMAC, SEC)
